In PMC2635752:

Legend:
[1] = biological target: growth-associated protein GAP-43 (mouse (endogenous in N1E-115)) (UniProt P06837); test: cross-linking + co-IP; 1 mM DSP added to living [35S]-labeled differentiated N1E-115 cells (15 min, room temperature, KRH); lysis in SDS, then NP-40 lysis buffer; 100,000 × g supernatant; monoclonal anti-GAP-43 (clone 91E12) and protein G plus agarose; crosslinks cleaved; two-dimensional gel, fluorography; spots cut out and counted, calmodulin cpm divided by 9/4
[2] = biological target: growth-associated protein GAP-43 (mouse (endogenous in N1E-115)) (UniProt P06837); test: cross-linking + co-IP; cells lysed in 1% NP-40 substitute buffer first; 1 mM DSP added to the low-speed supernatant (15 min, room temperature); glycine and SDS added; 100,000 × g supernatant; monoclonal anti-GAP-43; two-dimensional gel; spots counted, calmodulin cpm divided by 9/4

Sequence of UniProt P06837 (P06837 whole entry): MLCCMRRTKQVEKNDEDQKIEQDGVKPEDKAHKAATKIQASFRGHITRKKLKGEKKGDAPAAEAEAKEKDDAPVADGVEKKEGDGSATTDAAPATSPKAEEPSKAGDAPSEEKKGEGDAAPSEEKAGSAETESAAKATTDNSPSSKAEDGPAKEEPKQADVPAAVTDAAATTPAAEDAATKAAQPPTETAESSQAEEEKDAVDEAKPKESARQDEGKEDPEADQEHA

calmodulin as percent of the GAP-43 in the immunoprecipitate [1]: 14% | percent of the total GAP-43 crosslinked to calmodulin [1]: 25% | radioactivity of calmodulin in the anti-GAP-43 immunoprecipitate (divided by 9/4) [1]: 278 cpm | calmodulin as percent of the GAP-43 in the immunoprecipitate [2]: 39% | radioactivity of calmodulin in the anti-GAP-43 immunoprecipitate (divided by 9/4) [2]: 643 cpm
Substance: calmodulin (from UniProt P0DP26 1-149) (natural protein)
